Data from patent US20250034239A1 (LINNO PHARMACEUTICALS, published 2025).
Values belong to the binder of their own block, whether it stands above or below them.

Key:
human VEGFA121 = target: T1, human VEGFA121 (human, UniProt P15692-9 27-147, biotinylated); assay: target-binding ELISA on hVEGFA121, humanized VHH-Fc
T1 construct: Biotinylated; also called hVEGFA121; hVEGFA121-biotin
T1 sequence (looked up): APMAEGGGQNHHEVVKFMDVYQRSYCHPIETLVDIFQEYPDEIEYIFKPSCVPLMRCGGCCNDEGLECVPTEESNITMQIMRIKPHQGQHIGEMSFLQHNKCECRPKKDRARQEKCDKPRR
Description: For binding ELISA, immunoplates were coated with 100 μl/well 1 μg/ml streptavidin and incubate at 4° C. overnight. Wells were washed with PBST for 3 times and blocked with 200 μl of 1% BSA/PBS at RT for 1 hr. Washed with PBST for 3 times and add hVEGFA121-biotin or mVEGFA120-biotin (0.1 μg/ml) 100 al/well and incubated at RT for 1 hr. Plates were washed with PBST for 3 times, 100 al/well 5-fold serially diluted VHH-Fcs from 2 μg/ml was added. and incubate at RT for 1 hr. Plates were washed with PBST for 3 times and add 100 al goat anti-human Fc-HRP (Sigma, A0170) diluted 1/5000 in 1% BSA/PBST to each well and incubate at RT for 1 hr. Plates were then washed as before and add 100 al TMB substrate and incubate at RT for 15 min. 100 al per well stop solution was added to stop the reaction, and the plates were read with microplate reader at 450 nm.
Four VHHs (C2, C8, F6, D2) were selected for humanization. Proceed with plasmid construction and protein production as above, the humanized VHH-Fc was characterized with target-binding (ELISA) and RBA.

[1] = target: T2, human transferrin receptor 1 on HEK293F-hTfR1 cells (human, UniProt P02786 1-760); assay: flow cytometry on HEK293F-hTfR1 cells with or without transferrin
T2 construct: whole, on cells
T2 sequence (P02786 whole entry): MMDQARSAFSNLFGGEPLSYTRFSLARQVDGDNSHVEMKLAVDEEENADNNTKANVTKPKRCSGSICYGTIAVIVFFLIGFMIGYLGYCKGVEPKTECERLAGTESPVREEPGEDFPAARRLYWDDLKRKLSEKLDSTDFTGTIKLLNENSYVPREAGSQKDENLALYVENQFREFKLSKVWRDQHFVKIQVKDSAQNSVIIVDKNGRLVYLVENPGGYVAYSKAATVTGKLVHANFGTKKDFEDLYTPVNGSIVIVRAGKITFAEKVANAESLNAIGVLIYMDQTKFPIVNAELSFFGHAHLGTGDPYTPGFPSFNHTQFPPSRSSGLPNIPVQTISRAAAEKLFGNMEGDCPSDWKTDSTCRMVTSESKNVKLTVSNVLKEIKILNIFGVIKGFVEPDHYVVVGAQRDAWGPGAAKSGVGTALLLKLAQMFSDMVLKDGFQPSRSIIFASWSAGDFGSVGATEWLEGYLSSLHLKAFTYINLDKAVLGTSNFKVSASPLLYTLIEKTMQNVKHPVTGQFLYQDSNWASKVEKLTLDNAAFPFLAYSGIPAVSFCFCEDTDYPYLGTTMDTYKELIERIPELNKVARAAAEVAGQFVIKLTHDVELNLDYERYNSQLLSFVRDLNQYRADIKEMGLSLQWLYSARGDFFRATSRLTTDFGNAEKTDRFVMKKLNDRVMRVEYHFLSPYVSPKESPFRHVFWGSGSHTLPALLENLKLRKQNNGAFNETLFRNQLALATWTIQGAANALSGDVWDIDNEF
Description: (§1) HEK293F-hTfR1 cells were prepared by transfecting hTfR1-expressing plasmid, with a GFP tag, into HEK293F cells. Stable pool was used for this assay. Briefly, the engineered HEK293F cells expressing hTfR1 were cultured with OPM-293 CD05 medium at 37° C., with 8% CO₂ and saturated humidity in cell shaker. […] The cells were washed twice by centrifugation at 300 g for 5 min at 4° C., before rabbit anti-OVA antibodies and a secondary anti-rabbit IgG-AF647 (all prepared in blocking buffer). The cells were scanned with CytoFLEX (Beckman).

[2] = target: T3, human transferrin (Sigma T3309) (human, UniProt P02787 20-698); assay: flow cytometry on HEK293F-hTfR1 cells with human transferrin, pH 6.0; grade by % binding (+++ ≥ 15%)
T3 construct: mature; same polypeptide; also called native human transferrin; hTf
T3 sequence (P02787 20-698): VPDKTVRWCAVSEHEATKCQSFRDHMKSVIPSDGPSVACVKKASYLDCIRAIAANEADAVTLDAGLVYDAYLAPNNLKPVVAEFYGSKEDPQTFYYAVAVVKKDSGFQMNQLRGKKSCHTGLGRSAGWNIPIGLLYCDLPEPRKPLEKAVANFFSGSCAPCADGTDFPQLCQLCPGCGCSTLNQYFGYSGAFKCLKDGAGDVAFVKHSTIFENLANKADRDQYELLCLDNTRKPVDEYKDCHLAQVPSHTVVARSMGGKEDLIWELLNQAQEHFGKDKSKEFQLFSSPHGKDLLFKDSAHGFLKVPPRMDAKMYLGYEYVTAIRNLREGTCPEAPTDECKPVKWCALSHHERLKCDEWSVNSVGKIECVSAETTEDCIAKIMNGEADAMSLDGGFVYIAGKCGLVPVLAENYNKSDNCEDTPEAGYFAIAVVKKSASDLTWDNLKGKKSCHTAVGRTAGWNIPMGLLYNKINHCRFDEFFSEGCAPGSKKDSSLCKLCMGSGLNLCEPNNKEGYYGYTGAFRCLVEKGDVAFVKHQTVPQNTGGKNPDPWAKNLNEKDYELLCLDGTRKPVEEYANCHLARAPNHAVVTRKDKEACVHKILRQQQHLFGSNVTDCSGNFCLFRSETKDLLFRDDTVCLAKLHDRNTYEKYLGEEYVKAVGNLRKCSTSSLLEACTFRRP
Description: as §1

[3] = target: T3, human transferrin (Sigma T3309); assay: flow cytometry on HEK293F-hTfR1 cells with human transferrin, pH 7.4; grade by % binding (+++ ≥ 15%)
Description: as §1

[4] = target: T3, human transferrin (Sigma T3309); assay: flow cytometry on HEK293F-hTfR1 cells with human transferrin, pH 7.4; grade by % binding (10% > + ≥ 5%)
Description: as §1

B1: SLN-6068 humanized VHH-Fc (Fc fusion)
chain: EVQLVESGGGLVQPGGSLRLSCAASVYTSSTYYMAWFRQAPGKGREGVAAAYAGGGGTVYADSVKGRFTISQDNSKNTLYLQMNSLRAEDTAVYYCAARMSRLLGMAPLLPEHYDSWGQGTLVTVSS
notes: tested as VHH-Fc; also called C2-11; not shown: human IgG4 Fc (VHH-hIgG4 Fc fusion)
binding result (human VEGFA121): binds

B2: SLN6062 humanized VHH-Fc (Fc fusion)
chain: EVQLVESGGGLVQPGGSLRLSCAASVYTASCMGWFRQAPGKGLELVSTLNRNSGRTSYVGSVKGRFTISQDNSKKTLYLQMNSLRAEDTAVYYCAATWSWYSFTCPGDQNAYIHWGQGTLVTVSS
notes: tested as VHH-Fc; also called C8-9; not shown: human IgG4 Fc (VHH-hIgG4 Fc fusion)
binding result (human VEGFA121): binds

B3: SLN-6043 humanized VHH-Fc (Fc fusion)
chain: EVQLVESGGGVVQPGGSLRLSCAASGFTSDNCAVHWVRQAPGKGLEWVSSISSDDSTRYADSVKGRFTISRDNSKNSLYLQMNSLRTEDTALYYCQTKWPCTYRRGGSAYRPAVVWGQGTLVTVSS
notes: tested as VHH-Fc; also called F6-1; not shown: human IgG4 Fc (VHH-hIgG4 Fc fusion)
binding result (human VEGFA121): binds

B4: SLN6065 humanized VHH-Fc (Fc fusion)
chain: EVQLVESGGGLVQPGGSLRLSCAASRDAYFNNYMAWFRQAPGKGLEGVSSIATNTGNDYYADSVKGRFTISRDNSKNTIYLQMNSLRAEDTAVYYCAAGWRGGSFWTPSKYSYWGQGTLVTVSS
notes: tested as VHH-Fc; also called D2-9; not shown: human IgG4 Fc (VHH-hIgG4 Fc fusion)
binding result (human VEGFA121): binds

Results, then the binder that gave them:

binding result [1]: no binding (tested: 10 µg/mL)
percent binding (flow cytometry, VHH/Tf on hTfR1-overexpressing cells, pH 6.0) [2]: ≥ 15%
B5: SLN0044 VHH-OVA-His (VHH)
chain: DVQLVESGGGSVQAGGSLRLSCAASIYTYSTACMAWFRQAPGKEREGVAAIARYGDTTYTDSVKGRFTISRDVAKNILYLQMSSLKPEDTAMYYCASKSPNSGCDEYAHYETFGQGTQVTVSSGSIGAASMEFCFDVFKELKVHHANENIFYCPIAIMSALAMVYLGAKDSTRTQINKVVRFDKLPGFGDSIEAQCGTSVNVHSSLRDILNQITKPNDVYSFSLASRLYAEERYPILPEYLQCVKELYRGGLEPINFQTAADQARELINSWVESQTNGIIRNVLQPSSVDSQTAMVLVNAIVFKGLWEKAFKDEDTQAMPFRVTEQESKPVQMMYQIGLFRVASMASEKMKILELPFASGTMSMLVLLPDEVSGLEQLESIINFEKLTEWTSSNVMEERKIKVYLPRMKMEEKYNLTSVLMAMGITDVFSSSANLSGISSAESLKISQAVHAAHAEINEAGREVVGSAEAGVDAASVSEEFRADHPFLFCIKHIATNAVLFFGRCVSP
notes: Tested as recombinant VHH-OVA-His; not shown: His tag

binding result [1]: no binding (tested: 10 µg/mL)
percent binding (flow cytometry, VHH/Tf on hTfR1-overexpressing cells, pH 6.0) [2]: ≥ 15%
percent binding (flow cytometry, VHH/Tf on hTfR1-overexpressing cells, pH 7.4) [3]: ≥ 15%
B6: SLN0049 VHH-OVA-His (VHH)
chain: EVQLVESGGGSVQAGGSLRLSCAASRATNSRYSMGWFRQAPGKEREGVAAIDSIGRTSYADSVKGRFTISQDGAKNTLYLQMNSLKPEDTAMYYCAATAWRDWATLREYEYGYWGQGTQVTVSSGSIGAASMEFCFDVFKELKVHHANENIFYCPIAIMSALAMVYLGAKDSTRTQINKVVRFDKLPGFGDSIEAQCGTSVNVHSSLRDILNQITKPNDVYSFSLASRLYAEERYPILPEYLQCVKELYRGGLEPINFQTAADQARELINSWVESQTNGIIRNVLQPSSVDSQTAMVLVNAIVFKGLWEKAFKDEDTQAMPFRVTEQESKPVQMMYQIGLFRVASMASEKMKILELPFASGTMSMLVLLPDEVSGLEQLESIINFEKLTEWTSSNVMEERKIKVYLPRMKMEEKYNLTSVLMAMGITDVFSSSANLSGISSAESLKISQAVHAAHAEINEAGREVVGSAEAGVDAASVSEEFRADHPFLFCIKHIATNAVLFFGRCVSP
notes: as for B5

binding result [1]: no binding (tested: 10 µg/mL)
percent binding (flow cytometry, VHH/Tf on hTfR1-overexpressing cells, pH 7.4) [4]: 5 to 10%
B7: SLN0065 VHH-OVA-His (VHH)
chain: EVQLVESGGGSVQAGGSLRLSCLYTDSLFWMGWFRQTPGNEREGVAVTGRDGSTIYADSVQGRFTISRDNAKNTLYLQMNSLKPDDTAMYYCAADQTRYSSLRLLAPNRSASWGQGTQVTVSSGSIGAASMEFCFDVFKELKVHHANENIFYCPIAIMSALAMVYLGAKDSTRTQINKVVRFDKLPGFGDSIEAQCGTSVNVHSSLRDILNQITKPNDVYSFSLASRLYAEERYPILPEYLQCVKELYRGGLEPINFQTAADQARELINSWVESQTNGIIRNVLQPSSVDSQTAMVLVNAIVFKGLWEKAFKDEDTQAMPFRVTEQESKPVQMMYQIGLFRVASMASEKMKILELPFASGTMSMLVLLPDEVSGLEQLESIINFEKLTEWTSSNVMEERKIKVYLPRMKMEEKYNLTSVLMAMGITDVFSSSANLSGISSAESLKISQAVHAAHAEINEAGREVVGSAEAGVDAASVSEEFRADHPFLFCIKHIATNAVLFFGRCVSP
notes: as for B5

binding result [1]: no binding (tested: 10 µg/mL)
percent binding (flow cytometry, VHH/Tf on hTfR1-overexpressing cells, pH 6.0) [2]: ≥ 15%
percent binding (flow cytometry, VHH/Tf on hTfR1-overexpressing cells, pH 7.4) [3]: ≥ 15%
B8: SLN0056 VHH-OVA-His (VHH)
chain: EVQLVESGGGSVQAGGSLRLSCRASGHAYGGNYMGWFRQAPGKEREGVAVLYTGGGSTYYADSVKGRFTISEDNAKNTVYLQMDSLKLEDTAMYYCALALGSARWYTSSLDARAYNIWGQGTQVTVSSGSIGAASMEFCFDVFKELKVHHANENIFYCPIAIMSALAMVYLGAKDSTRTQINKVVRFDKLPGFGDSIEAQCGTSVNVHSSLRDILNQITKPNDVYSFSLASRLYAEERYPILPEYLQCVKELYRGGLEPINFQTAADQARELINSWVESQTNGIIRNVLQPSSVDSQTAMVLVNAIVFKGLWEKAFKDEDTQAMPFRVTEQESKPVQMMYQIGLFRVASMASEKMKILELPFASGTMSMLVLLPDEVSGLEQLESIINFEKLTEWTSSNVMEERKIKVYLPRMKMEEKYNLTSVLMAMGITDVFSSSANLSGISSAESLKISQAVHAAHAEINEAGREVVGSAEAGVDAASVSEEFRADHPFLFCIKHIATNAVLFFGRCVSP
notes: as for B5

binding result [1]: no binding (tested: 10 µg/mL)
percent binding (flow cytometry, VHH/Tf on hTfR1-overexpressing cells, pH 7.4) [4]: 5 to 10%
B9: SLN0071 VHH-OVA-His (VHH)
chain: EVQLVESGGGSVQAGGSLRLSCAGSEYTYSRCCMGWFRQAPGKEREGVVSINVLGGTSYADSVKGRFTISRDNAENTLYLQMNSLKPEDTAMYYCAAGLASAPWRPCGTTTEEYKYWGQGTQVTVSSGSIGAASMEFCFDVFKELKVHHANENIFYCPIAIMSALAMVYLGAKDSTRTQINKVVRFDKLPGFGDSIEAQCGTSVNVHSSLRDILNQITKPNDVYSFSLASRLYAEERYPILPEYLQCVKELYRGGLEPINFQTAADQARELINSWVESQTNGIIRNVLQPSSVDSQTAMVLVNAIVFKGLWEKAFKDEDTQAMPFRVTEQESKPVQMMYQIGLFRVASMASEKMKILELPFASGTMSMLVLLPDEVSGLEQLESIINFEKLTEWTSSNVMEERKIKVYLPRMKMEEKYNLTSVLMAMGITDVFSSSANLSGISSAESLKISQAVHAAHAEINEAGREVVGSAEAGVDAASVSEEFRADHPFLFCIKHIATNAVLFFGRCVSP
notes: as for B5

binding result [1]: no binding (tested: 10 µg/mL)
percent binding (flow cytometry, VHH/Tf on hTfR1-overexpressing cells, pH 6.0) [2]: ≥ 15%
percent binding (flow cytometry, VHH/Tf on hTfR1-overexpressing cells, pH 7.4) [3]: ≥ 15%
B10: SLN0072 VHH-OVA-His (VHH)
chain: EVQLVESGGGSVQAGGSLRLSCVASGYTGSSSYMGWFRQVPGKEREGVAQINSRSGSTYYADSVKGRFTISQDNAKNTVYLQMTSLKPEDTGMYYCAERFGPTFYPVPLGSNLYNYWGQGTQVTVSSGSIGAASMEFCFDVFKELKVHHANENIFYCPIAIMSALAMVYLGAKDSTRTQINKVVRFDKLPGFGDSIEAQCGTSVNVHSSLRDILNQITKPNDVYSFSLASRLYAEERYPILPEYLQCVKELYRGGLEPINFQTAADQARELINSWVESQTNGIIRNVLQPSSVDSQTAMVLVNAIVFKGLWEKAFKDEDTQAMPFRVTEQESKPVQMMYQIGLFRVASMASEKMKILELPFASGTMSMLVLLPDEVSGLEQLESIINFEKLTEWTSSNVMEERKIKVYLPRMKMEEKYNLTSVLMAMGITDVFSSSANLSGISSAESLKISQAVHAAHAEINEAGREVVGSAEAGVDAASVSEEFRADHPFLFCIKHIATNAVLFFGRCVSP
notes: as for B5
